Columns and labels:
naïve CD8^+ T cells = assay: Quality of primed CD8+ T cells (effector molecules, cytokines) by DC activator; type: cell-based, human; details: IFN-α DCs targeted with anti-DCIR-MART-1, Luminex, FIG. 7F
Protocol: Expansion of antigen-specific T cells in DC/T cell coculture: To assess the function of DCs in presenting FluMP- or MART-1-derived antigens, the present inventors used DCs from HLA-A201^+ donors. Cells were cultured with conjugates mAbs at the indicated concentration. Syngeneic purified CD8^+ T cells were cultured with the antigen-pulsed DCs at a DC/T ratio 1:20. CD40L (100 ng/ml; R&D) was added to the culture after 24 h to enhance crosspresentation by DCs^49. The cocultures were incubated at 37° C. for 8-10 days. IL-2 was added at 10 U/ml at day 3. Where indicated, DCs were activated with TLR agonists: LPS (10, 50 or 200 ng/ml; […]; Invivogen). The expansion of FluMP-, MART-1-, and HIV gag p24-specific CD8^+ T cells was evaluated using HLA-A201-FluMP (58-66) peptide ([…]) (SEQ ID NO: 1), HLA-A201-MART-1 (26-35) peptide ([…]) (SEQ ID NO: 2) and HLA-A201-p24 (151-155) peptide ([…]) (SEQ ID NO: 3)-tetramers, respectively (Beckman Coulter). For the assessment of crosspriming to multiple CD8^+ T cell-specific epitopes, CD34^+-derived DCs were incubated with anti-DCIR-p24 or IgG4-p24 fusion mAbs and cultured with CFSE-labeled CD8^+ T cells at a DC/T ratio 1:30. […] The secreted IFN-γ was measured in the culture supernatants by Luminex. […] Secretion of IFN-γ, TNF-α, IL-12p40, IL-4, IL-5 and IL-13 were measured in the supernatant after 40 h by Luminex. […]

blood HLA-A201^+ mDCs = type: cell-based, human; details: mDCs targeted with anti-DCIR.doc-coh.FluMP; Poly I:C 5 μg/ml, LPS 50 ng/ml, CL075 1 μg/ml
Protocol: The specific-FluMP CD8^+ T cell response was measured after 8-10 days using HLA-A201-FluMP (58-66) tetramer.

CD1a^+ LCs = assay: DCIR-signaling effect on DC phenotype and activation (surface markers, cytokines); details: stimulated 24 h
Protocol: DCIR-signaling effect on DC-function: CD34^+-derived DCs were cultured in anti-DCIR (clone 24A5 or 9E8) or isotype control coated plates in the presence or absence of CD40L (R&D; 100 ng/ml) or LPS (Invivogen; 50 ng/ml). After 24 h, cells were harvested and stained for surface phenotype. The secreted cytokines were analyzed by a multiplex bead assay (Luminex).

Molecule: CCCc1nc2c(N)nc3ccccc3c2s1 [CL075, reference compound]
- cytokines of DCIR-primed CD8^+ T cells according to the DC activator (naïve CD8^+ T cells): preferentially secrete IFN-γ and TNF-α with markedly reduced amounts of IL-4, IL-5 and IL-13

Molecule: Poly I:C
- effect of TLR agonist on FluMP-specific CD8^+ T cell response (blood HLA-A201^+ mDCs): enhanced the FluMP-specific responses at low concentration of the targeting complex

B1: CD40L: CD40 ligand (R&D; 100 ng/ml) used as DC activator (protein, UniProt P29965 113-261, looked up)
CD40 ligand, soluble form: MQKGDQNPQIAAHVISEASSKTTSVLQWAEKGYYTMSNNLVTLENGKQLTVKRQGLYYIYAQVTFCSNREASSQAPFIASLCLKSPGRFERILLRAANTHSSAKPCGQQSIHLGGVFELQPGASVFVNVTDPSQVSHGTGFTSFGLLKL
- Mean fluorescence expression of CD40 (CD1a^+ LCs): 31.8
- Mean fluorescence expression of CD80 (CD1a^+ LCs): 241.0
- Mean fluorescence expression of CD86 (CD1a^+ LCs): 294.0
- Mean fluorescence expression of HLA-ABC (CD1a^+ LCs): 108.0
- Mean fluorescence expression of HLA-DR (CD1a^+ LCs): 1018.000
- Mean fluorescence expression of ICOS-L (CD1a^+ LCs): 69.800
- cytokines of DCIR-primed CD8^+ T cells according to the DC activator (naïve CD8^+ T cells): high amounts of type 2 cytokines (IL-4, IL-5 and IL-13)

Reference: patent US20110274653A1, “DENDRITIC CELL IMMUNORECEPTORS (DCIR)-MEDIATED CROSSPRIMING OF HUMAN CD8+ T CELLS” (priority 2010, published 2011)
